In patent US20250197490A1 (HBM ALPHA THERAPEUTICS, published 2025):
Numbering of substitutions follows the chain as printed. Like-named read-outs stand apart in the source and are kept apart here.

Experiments:
biotinylated CRH [1] = biological target: T1, biotinylated CRH (human and mouse, UniProt P01143 145-185 (rat entry), not fully specified; biotin; which end is not stated for the result (NT-biotin and CT-biotin forms were used)); experiment: ELISA, CRH (NT biotin)
T1 construct: also called biotin-CRH; CRH (NT biotin)
T1 peptide: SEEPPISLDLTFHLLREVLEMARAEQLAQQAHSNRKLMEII

[2] = biological target: T2, corticotropin-releasing hormone (CRH) peptide (human and mouse, UniProt P01143 145-185 (rat entry), not fully specified); experiment: cell-based or functional assay
T2 peptide: T1 peptide

[3] = biological target: T2, corticotropin-releasing hormone (CRH) …; experiment: cell-based or functional assay
biotinylated CRH [4] = biological target: T1, biotinylated CRH; experiment: ELISA, CRH (CT biotin)
biotinylated CRH [5] = biological target: T1, biotinylated CRH; experiment: ELISA, CRH (NT biotin)
biotinylated CRH [6] = biological target: T1, biotinylated CRH; experiment: ELISA, CRH (CT biotin)
[7] = biological target: T2, corticotropin-releasing hormone (CRH) …; experiment: cell-based or functional assay
[8] = biological target: T2, corticotropin-releasing hormone (CRH) …; experiment: cell-based or functional assay
biotinylated CRH [9] = biological target: T1, biotinylated CRH; experiment: ELISA, CRH (CT biotin)
Experimental: (§1) Streptavidin (Thermo, Cat: 21125) was diluted in PBS to a concentration of 2 μg/ml. 100 μl of diluted streptavidin was added per well to ELISA microplates, and the plates were incubated overnight at 4° C. […] Subsequently, plates were washed and incubated with HRP-conjugated goat anti-human IgG (H+L) antibody (Jackson, Cat: 109-035-088) at 37° C. for 1 hour. 100 μL of 3,3′,5,5′-tetramethylbenzidine (TMB) substrate (Biopanda, Cat: TMB-S-003) was added, and the plates were incubated at room temperature for 15 minutes. 100 μL of ELISA stopping solution (Solarbio, Cat #: C1058) was added to terminate the reaction, and the optical density at 450 nm (OD450 nm) was determined by an ELISA plate reader (Molecular Devices, Spectra max 384 plus).
(§2) These potential PTMs were mutated individually either in HCDR2 alone, in LCDR1 alone, or in various combinations of mutations, as detailed in Table 3. […] Most ΔPTM variants retained functional activities.

biotinylated CRH [10] = biological target: T1, biotinylated CRH; experiment: ELISA, CRH (NT biotin)
Experimental: as §1, §2

[11] = biological target: T2, corticotropin-releasing hormone (CRH) …; experiment: cell-based or functional assay
biotinylated CRH [12] = biological target: T1, biotinylated CRH; experiment: ELISA, CRH (NT biotin)
biotinylated CRH [13] = biological target: T1, biotinylated CRH; experiment: Octet in-tandem competition on captured CRH; row = 1st mAb; competitor (2nd mAb) PR005660
Experimental: (§3) SA sensors (Fortebio, Cat #18-5019) were hydrated in running buffer for 10 mins.

biotinylated CRH [14] = biological target: T1, biotinylated CRH; experiment: Octet in-tandem competition on captured CRH; row = 1st mAb; competitor (2nd mAb) PR006669
Experimental: as §3

[15] = biological target: T2, corticotropin-releasing hormone (CRH) …; experiment: cell-based or functional assay
biotinylated CRH [16] = biological target: T1, biotinylated CRH; experiment: ELISA, CRH (NT biotin)
Experimental: as §1

[17] = biological target: T3, CRH (Central Region, NT Biotin) (N-terminal Biotin-K; C-terminal NH2); experiment: ELISA, CRH central region peptide (NT biotin)
T3 construct: also called Central CRH
T3 peptide: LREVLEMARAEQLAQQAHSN
Experimental: as §1

biotinylated CRH [18] = biological target: T1, biotinylated CRH; experiment: Octet in-tandem competition on captured CRH; row = 1st mAb; competitor (2nd mAb) PR302309-8
Experimental: as §3

biotinylated CRH [19] = biological target: T1, biotinylated CRH; experiment: Octet in-tandem competition on captured CRH; row = 1st mAb; competitor (2nd mAb) PR303394
Experimental: as §3

biotinylated CRH [20] = biological target: T1, biotinylated CRH; experiment: Octet in-tandem competition on captured CRH; row = 1st mAb; competitor (2nd mAb) PR302341-34
Experimental: as §3

biotinylated CRH [21] = biological target: T1, biotinylated CRH; experiment: Octet in-tandem competition on captured CRH; row = 1st mAb; competitor (2nd mAb) PR301777
Experimental: as §3

[22] = biological target: T4, human UCN3 peptide, biotinylated (human, UniProt Q969E3 120-157, biotin at N- or C-terminus); experiment: ELISA, hUCN3 (NT biotin) and (CT biotin)
T4 construct: also called hUCN3 (NT Biotin); hUCN3 (CT Biotin)
T4 peptide (looked up): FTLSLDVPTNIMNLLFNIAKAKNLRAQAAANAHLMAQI
Experimental: (§4) Streptavidin (Thermo, Cat: 21125) was diluted in PBS with a concentration of 2 μg/mL. 100 μL of diluted streptavidin was added per well to ELISA microplates, and the plates were incubated overnight at 4° C. Plates were blocked with ELISA blocking solution (containing 2% w/v BSA, 0.05% (v/v) Tween-20, pH 7.4 PBS buffer) at 37° C. for 1 hour, and then incubated with either 1 μg/mL hUCN1 (NT Biotin), hUCN1 (CT Biotin), hUCN2 (NT Biotin), hUCN2 (CT Biotin), hUCN3 (NT Biotin), or hUCN3 (CT Biotin) for 1 hour at 37° C. […] Plates were subsequently washed and incubated with HRP-conjugated goat anti-human IgG (H+L) antibody (Jackson, Cat: 109-035-088) at 37° C. for 1 hour. 100 μl of TMB Substrate (Biopanda, Cat: TMB-S-003) was added, and the plates were incubated at room temperature for 15 minutes. 100 μL of ELISA stopping solution (Solarbio, Cat #: C1058) was then added to terminate the reaction, and the OD450 nm was determined by an ELISA plate reader (Molecular Devices, Spectra max 384 plus).

[23] = biological target: T5, N-Terminal CRH peptide (N-terminal region plus central region, CT biotin) (human and mouse, C-terminal K-Biotin); experiment: ELISA, N-Ter-CRH (CT-biotin) on streptavidin
T5 construct: also called N-Ter-CRH
T5 peptide: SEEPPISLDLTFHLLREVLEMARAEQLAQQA
Experimental: as §1

biotinylated CRH [24] = biological target: T1, biotinylated CRH; experiment: Octet in-tandem competition on captured CRH; row = 1st mAb; competitor (2nd mAb) PR302334
Experimental: as §3

[25] = biological target: T6, human UCN2 peptide, biotinylated (human, UniProt Q96RP3 72-109, limits assumed, biotin at N- or C-terminus); experiment: ELISA, hUCN2 (NT biotin) and (CT biotin)
T6 construct: also called hUCN2 (NT Biotin); hUCN2 (CT Biotin)
T6 peptide (looked up): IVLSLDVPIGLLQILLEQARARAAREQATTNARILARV
Experimental: as §4

biotinylated CRH [26] = biological target: T1, biotinylated CRH; experiment: ELISA, CRH (CT biotin)
Experimental: as §1

[27] = biological target: T7, human UCN1 peptide, biotinylated (human, UniProt P55089 83-122, biotin at N- or C-terminus); experiment: ELISA, hUCN1 (NT biotin)
T7 construct: also called hUCN1 (NT Biotin); hUCN1 (CT Biotin)
T7 peptide (looked up): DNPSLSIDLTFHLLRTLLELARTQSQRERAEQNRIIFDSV
Experimental: as §1

[28] = biological target: T8, CRH (Central Region, CT Biotin) (C-terminal K-Biotin); experiment: ELISA, CRH central region peptide (CT biotin)
T8 construct: also called Central CRH
T8 peptide: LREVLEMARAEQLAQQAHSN
Experimental: as §1

[29] = biological target: T9, CRH (C-Terminal Region, NT Biotin) (N-terminal Biotin-K; C-terminal NH2); experiment: ELISA, CRH C-terminal region peptide (NT biotin)
T9 construct: central region plus C-terminal region of CRH; also called C-Terminal CRH; C-Ter-CRH
T9 peptide: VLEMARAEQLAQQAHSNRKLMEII
Experimental: as §1

[30] = biological target: T2, corticotropin-releasing hormone (CRH) …; experiment: cell-based or functional assay

B1: PR004290 (antibody, human IgG1, kappa, V domains shown)
VH: EVQLVESGGVLVQPGGSLRLSCAASGFTFSSYWMTWVRQAPGKGLEWVANIKQDGSEKYYVDSVKGRFTISRDNAKNSLFLQMNSLRAEDTAVYYCARTLIFDYWGQGTLVTVSS
VL: DIVMTQSPLSLPVTPGEPASISCRSSQSLLHSTGYNSLEWYLQKPGQSPQLLIYLGSNRASGVPDRFSGSGSGTDFTLKISRVEAEDVGIYYCMQTLQTPITFGQGTRLEIKR
notes: human IgG1 wildtype Fc; also called Hybridoma Clone 28b3
Biotinylated CRH [1]
  EC50 (read off the curve): ~0.01 nM
[2]
  IC50 in the hCRHR1 reporter assay: ~5 nM
[3]
  IC50 (read off the curve), CRH-induced mCRHR1 luciferase reporter: ~8 nM
Biotinylated CRH [4]
  EC50 (read off the curve): ~0.01 nM
Biotinylated CRH [5]
  EC50 (read off the curve): ~0.05 nM
Biotinylated CRH [6]
  EC50 (read off the curve): ~0.03 nM
[7]
  IC50 (read off the curve), CRH-induced mCRHR1 luciferase reporter: ~5 nM
[8]
  IC50 (read off the curve), CRH-induced hCRHR1 luciferase reporter: ~3 nM
Biotinylated CRH [9]
  EC50 (read off the curve): ~0.05 nM
Biotinylated CRH [10]
  EC50 (read off the curve): ~0.03 nM
[11]
  IC50 (read off the curve), CRH-induced hCRHR1 luciferase reporter: ~3 nM
Biotinylated CRH [12]
  EC50 (read off the curve): ~0.01 nM

B2: PR302309-8 (antibody, human IgG1, kappa, V domains shown)
VH: QIQLVQSGSELKKPGASVKVSCKASGYTFTNYGMNWVRQAPGQGLEWMGWINTYTGEPIYTDDFKGRFVFSLDTSVSTAYLQISSLKAEDTAVYYCSRSTMITTGGVFAYWGQGTLVTVSS
VL: DVVMTQSPLSLPVTLGQPASISCRSSQTIVHSDGNTYLEWYQQRPGQSPRLLIYKVSNRFSGVPDRFSGSGSGTDFTLKISRVEAEDLGVYYCFQGSHVPWTFGGGTKVEIKR
Biotinylated CRH [13]
  % Inhibition: 76%
Biotinylated CRH [14]
  % Inhibition: 76%
[15]
  hCRHR1-Luc 0.5 nM CRH IC50: 1.7 nM
Biotinylated CRH [16]
  EC50 (read off the curve): ~0.03 nM
[17]
  binding result: no binding (tested: 100 nM)
Biotinylated CRH [18]
  % Inhibition: 87%
Biotinylated CRH [19]
  % Inhibition: 77%
Biotinylated CRH [20]
  % Inhibition: 74%
Biotinylated CRH [21]
  % Inhibition: 80%
[22]
  binding result: no binding (tested: 100 nM)
[23]
  EC50: 0.025 nM
Biotinylated CRH [24]
  % Inhibition: 65%
[25]
  binding result: no binding (tested: 100 nM)
Biotinylated CRH [26]
  EC50 (read off the curve): ~0.03 nM
[27]
  EC50 (read off the curve): ~0.1 nM
[28]
  binding result: no binding (tested: 100 nM)
[29]
  binding result: no binding (tested: 100 nM)

B3: PR302341-67 (antibody, human IgG1, kappa, V domains shown)
VH: QVQLVQSGAEVKKPGASVKVSCKASGYTFTDYFMKWVRQAPGQGLEWMGVINPNNGDIFYNQKFKGRVTMTVDKSTSTAYMELSSLRSEDTAVYYCARGTDRALFAYWGQGTLVTVSS
VL: B2 VL with S7T, L11S, S26G, T28S, G34A, S48P, S72A, V99I
[30]
  IC50 (read off the curve), CRH-induced hCRHR1 luciferase reporter: ~0.2 nM
